Results reported in the DeepSol protein solubility set.

Assay: soluble on expression in E. coli; label from the status in PepcDB or PDB records

| Sequence | soluble on expression in E. coli |
| --- | --- |
| SEFQSTVVATVDCQKQVRSWRLLRSFIQLLIPTCNCTLVQELEQDNTNLRGKKLYNDIKSRTSSFRSSSSLSSSTVTGTIFGYRKGKINFCIQTPRKSTNLDLLLELAVPTTVLAREMREGALRIVLERNNEKQDDDSFLSKPFWNMYCNGKRVGYARKRSPSQDDMTALTALSKVVVGAGVVTGKELGRFDDELMYLRASFRRVNGSKESESFHLIDPAGNIGQELSIFIVPSSV | soluble |
| SEKEKGNDDGIPDQENSLDFSEHFNQLELLETHGHLIPTGTQSLWVGNSDEDEEQDDKNEEWYRLQEKKMEKDPSRLLLWAAEKNRLTTVRRLLSEKATHVNTRDEDEYTPLHRAAYSGHLDIVQELIAQGADVHAVTVDGWTPLHSACKWNNTRVASFLLQHDADINAQTKGLLTPLHLAAGNRDSKDTLELLLMNRYVKPGLKNNLEETAFDIARRTSIYHYLFEIVEGCTNSSPQS | soluble |
| SEKMKLLYVYDPLCGWCYGFGPVVEKIEKNYKGTVDVEIISGGMVMGNRIAPIGNMSEYILDAIPRLQRMTGIEFGQPYITLLKEGSYVTSSEKPSIALCVYKSFTAERAVEYGHAIQTSFYKEGKDLNQDVLYADLATSYGIDRAAFLKRMKDSVYFNQAHEEFKRAAALGVTGFPTLLLKQENGYTALTEGYATYESIEKQLQKHVKAAGTK | not soluble |
| SELLCHEVDPVRRAVRDRNLLRDDRVLQNLLTIEERYLPQCSYFKCVQKDIQPYMRRMVATWMLEVCEEQKCEEEVFPLAMNYLDRFLAGVPTPKSHLQLLGAVCMFLASKLKETSPLTAEKLCIYTDNSIKPQELLEWELVVLGKLKWNLAAVTPHDFIEHILRKLPQQREKLSLIRKHAQTFIALCATDFKFAMYPPSMIATGSVGAAICGLQQDEEVSSLTCDALTELLAKITNTDVDCLKACQEQIEAVLLNSLQQYRQDQRDGSKSEDELDQASTPTDVRDIDL | soluble |
| SENLYFQGSANAVCQRCQARFSPAERIVNSNGELYHEHCFVCAQCFRPFPEGLFYEFEGRKYCEHDFQMLFA | soluble |
| SENVGKKYFMSSVRRMPLNRAKALCSELQGTVATPRNAEENRAIQNVAKDVAFLGITDQRTENVFEDLTGNRVRYTNWNEGEPNNVGSGENCVVLLTNGKWNDVPCSDSFLVVCEFSD | soluble |
| SEVDINGDSRSTLTTLPLPVAEGSSPGKAEAEKPRCSSTPCSPMRRTVSGYQILHMDSNYLVGFTTGEELLKLAQKCTGGEDSKGEAMPALRAKQLDTGLARSSRLYKTRSRYYQPYEIPAVNGRRRRRMPSSGDKCTKPLPYEPYKALHGPLPLCLLKGKRAHSKSLDYLNLDKMNIKEPADTEVLQYQLQHLTLRGDRVFARNNT | not soluble |
| SFHGIPATPGIGAPGNKPELYEEVKLYKNAREREKYDNMAELFAVVKTMQALEKAYIKDCVSPSEYTAACSRLLVQYKAAFRQVQGSEISSIDEFCRKFRLDCPLAMERIKEDRPITIKDDKGNLNRCIADVVSLFITVMDKLRLEIRAMDEIQPDLRELMETMHRMSHLPPDFEGRQTVSQWLQTLSGMSASDELDDSQVRQMLFDLESAYNAFNRFLHA | soluble |
| SGAAGPSSASVKEFQNLVDQHITPFVALSKKLAPEVGNQVEQLVKAIDAEKALINTASQSKKPSQETLLELIKPLNNFAAEVGKIRDSNRSSKFFNNLSAISESIGFLSWVVVEPTPGPHVAEMRGSAEFYTNRILKEFKGVNQDQVDWVSNYVNFLKDLEKYIKQYHTTGLTWNPKGGDAKSATP | soluble |
| SGGCTALVAVSLQGKLYMANAGDSRAILVRRDEIRPLSFEFTPETERQRIQQLAFVYPELLAGEFTRLEFPRRLKGDDLGQKVLFRDHHMSGWSYKRVEKSDLKYPLIHGQGRQARLLGTLAVSRGLGDHQLRVLDTNIQLKPFLLSVPQVTVLDVDQLELQEDDVVVMATDGLWDVLSNEQVAWLVRSFLPGNQEDPHRFSKLAQMLIHSTQGKEDSLTEEGQVSYDDVSVFVIPLHSQGQESSDH | soluble |
| SGLVPGRHMMITMDDIIREGNPTLREVAKEVSLPLSEEDISLGKEMLEFLKNSQDPIKAEELHLRGGVGLAAPQLDISKRIIAVHVPSPDPEADGPSLSTVMYNPKILSHSVQDACLGEGEGCLSVDREVPGYVVRHAKITVSYYDMNGEKHKIRLKNYESIVVQHEIDHINGVMFYDHINDQNPFALKEGVLVIE | soluble |
| SGMEELEQGLLMQPWAWLQLAENSLLAKVFITKQGYALLVSDLQQVWHEQVDTSVVSQRAKELNKRLTAPPAAFLCHLDNLLRPLLKDAAHPSEATFSCDCVADALILRVRSELSGLPFYWNFHCMLASPSLVSQHLIRPLMGMSLALQCQVRELATLLHMKDLEIQDYQESGATLIRDRLKTEPFEENSFLEQFMIEKLPEACSIGDGKPFVMNLQDLYMAVTTQEVQVGQKHQ | soluble |
| SGQKASQQVAPKDSQEVLAMCEVVSAAISHAAQKLKEYLGFEYPLSRLCLAASSLTEVFLVHFVTFCQERGADEWLTTTKMTKHQAWLFGADWIWTFWGPDKEIRLQVAVQTLRMASLPLTDPKSCESRGEESWKKGRFDKLQEFCNLVGEDCLGLFIIFGVPGEPKAIRGVVLESVRNGMMESQLPGRKAVEQFVLETKDCVSIKELLGNCLSKRDGLSDMGRVYIRIL | soluble |
| SGQTALAGGSSSTPTPQALYPDLSCPEGLEELLSAPPPDLGAQRRHGWNPKDCSENIEVKEGGLYFERRPVAQSTDGARGKRGYSRGLHAWEISWPLEQRGTHAVVGVATALAPLQTDHYAALLGSNSESWGWDIGRGKLYHQSKGPGAPQYPAGTQGEQLEVPERLLVVLDMEEGTLGYAIGGTYLGPAFRGLKGRTLYPAVSAVWGQCQVRIRYLGERRAEPHSLLHLSRLCVRHNLGDTRLGQVSALPLPPAMKRYLLYQ | not soluble |
| SIHYTWQNALLDVSERLGVANNSVTLLQQKQANYVRAFADSYDFRTRINQGTPQDELQKWVTEQKKRYSLDFLSFQRVNSMENKFRFMDLTKRESFFDVLNREELEQLDPELAKRAEVPILADGGMEARGLVSRTVIPVYSQANDLIGFLDGGLLLNNSTVLVDQIRDLIYLSDNDRLRPVGTLTVFLDDLRVSTNVPLDSDHRLGRAIGTRVSAEVYNQVLSKGQQWVDRAYVYDAWYITAYQPIKDQYDNVIGMLYTGYLMWPFVKAYMTNIAE | not soluble |
| SIIPSLEELDSLKYSDLQNLAKSLGLRANLRATKLLKALKGYIKHEARKGNENQDESQTSASSCDETEIQISNQEEAERQPLGHVTKTRRRCKTVRVDPDSQQNHSEIKISNPTEFQNHEKQESQDLRATAKVPSPPDEHQEAENAVSSGNRDSKVPSEGKKSLYTDESSKPGKNKRTAITTPNFKKLHEAHFKEMESIDQYIERKKKHFEEHNSMNELKQPINKGGVRTPVPPRGRLSVASTPISQRRSQGRSCGPASQSTLGLKGSLKRSAISAAKTGVRFSAATKDNEHKRSLTKTPARKSAHVTVSGGTPKGEAVLGTHKLKTITGNSAAVITPFKLTTEATQTPVSNKKPVFDLKASLSRPLNYEPHKGKLKPWGQSKENNYLNQHVNRINFYKKTYKQPHLQTKEEQRKKREQERKEKKAKVLGMRRGLILAED | not soluble |
| SIKDVHRCFVIACIPGKKPYTLALSDFISATAACFKSGIPLKTLKESLENMKETYFRPLKVEEFELLRTWLTLVYKTLKEVLFPLTENKRGICDTDDSIYDEFVKSIVTAIREGYSMEKIRLEQVVTNTKTQPRTEFESALLSQSTRIVVQTVQIAKEFSSEQ | soluble |
| SILATPILIPENQRPPFPRSVGKVIRSEGTEGAKFRLSGKGVDQDPKGIFRINEISGDVSVTRPLDREAIANYQLEVEVTDLSGKIIDGPVRLDISVIDQNDNRPMFKEGPYVGHVMEGSPTGTTVMRMTAFDADDPSTDNALLRYNILKQTPTKPSPNMFYIDPEKGDIVTVVSPVLLDRETMETPKYELVIEAKDMGGHDVGLTGTATATILIDD | soluble |
| SIRLPAHLRLQPIYWSRDDVAQWLKWAENEFSLSPIDSNTFEMNGKALLLLTKEDFRYRSPHSGDVLYELLQHILKQRDLEAEAAAAEAAAKA | soluble |
| SKGWGWLALLLGVLLGTAWARRSQDLHCGACRALVDELEWEIARVDPKKTIQMGSFRINPDGSQSVVEVPYARSEAHLTELLEEVCDRMKEYGEQIDPSTHRKNYVRVVSRNGESSELDLQGIRIDSDISGTLKFACESIVEEYEDELIEFFSREADNVKDKLCSKRTDLCDHALHRSHDEL | soluble |
| SKKVIGKKRAHAEDDELDPMDPSSYSDAPRGGWVVGLKGVQPRAADTTASGPLFQQRPYPSPGAVLRRNAEVASSQKKKPNSQFTEITKRGDGSDGLGDAD | soluble |
| SKKVYAFDVQEQALGKTSQRLSDLGIENTELILDGHENLDHYVREPIRAAIFNLGYLPSADKSVITKPHTTLEAIEKILDRLEVGGRLAIMIYYGHDGGDMEKDAVLEYVIGLDQRVFTAMLYQPLNQINTPPFLVMLEKLQ | not soluble |
| SLAATGNASKPSLNSFYADGLGQLRNGLFSCFQPVFGYFGTKTTVEIEKSEDELWEIPFDAISELEWLGSGSQGAVFRGQLENRTVAVKKVNQLKETEIKHLRHLRHQNIIEFLGVCSKSPCYCIVMEYCSKGQLCTVLKSRNTITRELFAQWVKEIADGMHYLHQNKVIHRDLKSPNILISAEDSIKICDFGTSHMQKKMDSTMMSFCGTVSWMAPEMIKKQPCNEKVDVYSFGVVLWEMLTRETPYANIAQMAIIFGVGTNILSLPMPEEAPKGLVLLIKQCLSQKGRNRPSFSHIRQHWEIFKPELFEMTEEEWQLAWDSYREFAKCIQYPSTVTRDHGGPKSAFAMEEEIQRKRHEQLNHIKDIRNMYEMKLKRTNKMYDKLQGCFTELKLKESELAEWEKDLTER | soluble |
| SLAPPAPPVSYGVEEDVFHPVRAKQGMVASVDATATQVGVDILKEGGNAVDAAVAVGYALAVTHPQAGNLGGGGFMLIRSKNGNTTAIDFREMAPAKATRDMFLDDQGNPDSKKSLTSHLASGTPGTVAGFSLALDKYGTMPLNKVVQPAFKLARDGFIVNDALADDLKTYGSEVLPNHENSKAIFWKEGEPLKKGDTLVQANLAKSLEMIAENGPDEFYKGTIAEQIAQEMQKNGGLITKEDLAAYKAVERTPISGDYRGYQVYSMPPPSSGGIHIVQILNILENFDMKKYGFGSADAMQIMAEAEKYAYADRSEYLGDPDFVKVPWQALTNKAYAKSIADQIDINKAKPSSEIRPGKLAPYESNQTTHYSVVDKDGNAVAVTYTLNTTFGTGIVAGESGILLNNQMDDFSAKPGVPNVYGLVGGDANAVGPNKRPLSSMSPTIVVKDGKTWLVTGSPGGSRIITTVLQMVVNSIDYGLNVAEATNAPRFHHQWLPDELRVEKGFSPDTLKLLEAKGQKVALKEAMGSTQSIMVGPDGELYGASDPRSVDDLTAGY | soluble |
| SLAQTQLIQSEKMSSLGQLIAGVAHEINNPVNFIYGNLRYVAEYAQDLLHLLEKYQKFLPVTPPELESELDNIDLEFIIQDLPKLLDSMKLGTGRIVEIVQSLKNFSRHDEAEMKAVNIHDGIDGTLMILHHRLKAAIRRPKIEIVKDYAKLPLIECYPGKLNQVFMNILANAIDALEEGMGNEEIPPPTGQITIRTEVLDNQWVVIRIADNGPGMKEEVIRRIYDPFFTTKDVGKGTGLGMAISYQIVVDKHGGMLKCRSQPGEGTEFWIQIPVNCALADAAEEG | not soluble |
| SLDIRALGYFVAQTDAPQEWQHYAEQVLGMMTAPTDDGGFYIKMDERPYRMLVIPGADKRYFASGWELTGAKAYNNAKQTLLDKGIAFEEANKALCEQRRVQNILIVNDPAGNRHELYWGHVSDCQPFTSPQGVPAFITGDMGLGHTVLPAPNFDETFAFLTDVLGFELSDLFNFKPAPEADPIRIYFMHCGNARHHSLAICEFPVPSGCVHAMVEVENMTEVGRAHDRQQQHQVQLSATLGQHLNDKMTSFYMKTPSGFDLEYGFGGLQVENWEEHCAFEFSRVSLWGHDFSVGEKEG | not soluble |
